± gives the uncertainty stated by the source.
B1: POU domain, class 6, transcription factor 2, residues 609 to 663; numbered along this chain, P78424 (parent)
chain: KRRTSFTPQALEILNAHFEKNTHPSGQEMTEIAEKLNYDREVVRVWFCNKRQALK

Variants of: B1
Experiment: abundance fitness (aPCA) (normalised: wild type 0, dead -1); higher = more abundant; growth selection in yeast, the domain comes from the species named
Conditions: Homo sapiens

In order of rising abundance fitness:
1. KRRTSFTPQALEILNAHFEKNTHKSGQEMTEIAEKLNYDREVVRVWFCNKRQALK  -1.1 ± 0.15
2. KRRTSFTPQALEILNAHFEKNTHPSGQEMTEIAEKLNYDREVQRVWFCNKRQALK  -1.04 ± 0.26
3. KRRTSFTPQALEILNAHFEKNTHPSGQEMTEIAEKLNYDREVPRVWFCNKRQALK  -0.938 ± 0.22
4. KRRTSFTPQALEILNAHFEKNTHPSGQEMTEIAEKLNYDREVRRVWFCNKRQALK  -0.935 ± 0.11
5. KRRTSFTPQYLEILNAHFEKNTHPSGQEMTEIAEKLNYDREVVRVWFCNKRQALK  -0.76 ± 0.29
6. KRRTSFTPQALEILNAHFEKNTHPSGQEMTEIAEKLNYDREVFRVWFCNKRQALK  -0.665 ± 0.24
7. KRRTSFTPQALEILNAHFEKNTHPSGQEMTEFAEKLNYDREVVRVWFCNKRQALK  -0.649 ± 0.32
8. KRRTSFTPQALEILNAHFEKNTHPSGQEMTEIAEKWNYDREVVRVWFCNKRQALK  -0.642 ± 0.16
9. KRRTSFTPQALEILNAHFEKNTHASGQEMTEIAEKLNYDREVVRVWFCNKRQALK  -0.497 ± 0.068
10. KRRTSSTPQALEILNAHFEKNTHPSGQEMTEIAEKLNYDREVVRVWFCNKRQALK  -0.415 ± 0.086
11. KRRTSFTPQALEILNAHFEKNTHPSGQEMTEIQEKLNYDREVVRVWFCNKRQALK  -0.412 ± 0.28
12. KRRTSFTPQALEILNAHFQKNTHPSGQEMTEIAEKLNYDREVVRVWFCNKRQALK  -0.391 ± 0.18
13. KRRTSGTPQALEILNAHFEKNTHPSGQEMTEIAEKLNYDREVVRVWFCNKRQALK  -0.326 ± 0.067
14. KRRTSFTPQALEILNAHFEKNTHPMGQEMTEIAEKLNYDREVVRVWFCNKRQALK  -0.313 ± 0.27
15. KRRTSFTPQALEILNAHFEKNTMPSGQEMTEIAEKLNYDREVVRVWFCNKRQALK  -0.275 ± 0.15
16. KRRTSDTPQALEILNAHFEKNTHPSGQEMTEIAEKLNYDREVVRVWFCNKRQALK  -0.246 ± 0.13
17. KRRTSFTPQALEILNAHFEKNTHPSGQEMTEIAEKLNYDREVCRVWFCNKRQALK  -0.24 ± 0.15
18. KRRTSFTPQALEILNAHFEKNTHPSGQEMTEIAEKLNYDREVVRVWFCNKRGALK  -0.223 ± 0.1
19. KRRTSFTPQALEILTAHFEKNTHPSGQEMTEIAEKLNYDREVVRVWFCNKRQALK  -0.217 ± 0.13
20. KRRTSFTPQALEILNAHFEKNTHPSGQEMTEIAEKLNYDREVVRVWFCNKRQATK  -0.217 ± 0.22
21. KRRTSFTPQALEILNAHFEKNTHPSGQEMTEIAEKLNYDREVVRVWFCNKSQALK  -0.174 ± 0.098
22. KRRTSFTPQCLEILNAHFEKNTHPSGQEMTEIAEKLNYDREVVRVWFCNKRQALK  -0.154 ± 0.23
23. KRRTSFTFQALEILNAHFEKNTHPSGQEMTEIAEKLNYDREVVRVWFCNKRQALK  -0.147 ± 0.21
24. KRRTSFTPQALEILNAHFEKNTHPSGQEMTEIAEKLNYDREVVRVWFCNKRQAEK  -0.133 ± 0.13
25. KRRKSFTPQALEILNAHFEKNTHPSGQEMTEIAEKLNYDREVVRVWFCNKRQALK  -0.123 ± 0.15
26. KRRTSFTPQALEILNAHFEKNTHPSGQEMTEIAEKLNYDREVVRVWFCNKRDALK  -0.119 ± 0.12
27. KRRTSFTPQALEILNAHFEKNTHPSGQEMTAIAEKLNYDREVVRVWFCNKRQALK  -0.114 ± 0.19
28. KRRTSFTPQALEILDAHFEKNTHPSGQEMTEIAEKLNYDREVVRVWFCNKRQALK  -0.093 ± 0.15
29. KRRTSFTPQALEILCAHFEKNTHPSGQEMTEIAEKLNYDREVVRVWFCNKRQALK  -0.086 ± 0.13
30. KRRDSFTPQALEILNAHFEKNTHPSGQEMTEIAEKLNYDREVVRVWFCNKRQALK  -0.083 ± 0.16
31. KRRTSFTPQALEILNAHFEKNTHPSGQEMTEIAEKLNYDREVVRVWFCNKNQALK  -0.074 ± 0.19
32. KRRTSFTPIALEILNAHFEKNTHPSGQEMTEIAEKLNYDREVVRVWFCNKRQALK  -0.057 ± 0.5
33. KRRTSFTPHALEILNAHFEKNTHPSGQEMTEIAEKLNYDREVVRVWFCNKRQALK  -0.049 ± 0.24
34. KRRTSFTPQALEILNAHFEKNTHPSGQEMTGIAEKLNYDREVVRVWFCNKRQALK  -0.041 ± 0.095
35. KRRTSFTPKALEILNAHFEKNTHPSGQEMTEIAEKLNYDREVVRVWFCNKRQALK  -0.037 ± 0.2
36. KRRTSFTPQALEILNAHFEKNTHPSGQEMTEIAELLNYDREVVRVWFCNKRQALK  -0.01 ± 0.1
37. KRRSSFTPQALEILNAHFEKNTHPSGQEMTEIAEKLNYDREVVRVWFCNKRQALK  -0.001 ± 0.093
38. KRRTSFTPQALEILNAHFEKNTHPSGQEMTEIAEKLNLDREVVRVWFCNKRQALK  0.006 ± 0.059
39. KRRTSFTPQALEILNAHFEKNTRPSGQEMTEIAEKLNYDREVVRVWFCNKRQALK  0.011 ± 0.07
40. KRRTSFTPQALEILNAHFEKNTHPSGQEMTEIAEKLNYDREPVRVWFCNKRQALK  0.019 ± 0.15
41. KRRTSFTPQALEILNNHFEKNTHPSGQEMTEIAEKLNYDREVVRVWFCNKRQALK  0.02 ± 0.12
42. KRRTSFTPQALEILNAHFEKNTHPSGQEMTEIAEKLNCDREVVRVWFCNKRQALK  0.023 ± 0.074
43. KRRTSFTPQALEILNAHFEKNTHPSGQEMTEIAEKLNQDREVVRVWFCNKRQALK  0.024 ± 0.073
44. KRRTKFTPQALEILNAHFEKNTHPSGQEMTEIAEKLNYDREVVRVWFCNKRQALK  0.035 ± 0.12
45. KRRTSFTPQALEILNAHFEKNTHPSVQEMTEIAEKLNYDREVVRVWFCNKRQALK  0.073 ± 0.097
46. KRRTIFTPQALEILNAHFEKNTHPSGQEMTEIAEKLNYDREVVRVWFCNKRQALK  0.079 ± 0.12
47. KRRTSFTPQALEILNAHFEKNTHPSGQEMTEIAEKLNYDREVVRVWFCNKREALK  0.117 ± 0.18
48. KRRTTFTPQALEILNAHFEKNTHPSGQEMTEIAEKLNYDREVVRVWFCNKRQALK  0.12 ± 0.11
